What all share (experiment): SPOT array
Experiment [1] concerns the target T1, Yfr024 SH3 (LSB3_YEAST), P43603.
T1 chain: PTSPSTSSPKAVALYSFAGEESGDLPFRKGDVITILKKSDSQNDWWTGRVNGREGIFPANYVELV

In experiment [2] the target is T2, Boi2 SH3 (BOI2_YEAST), P39969.
T2 chain: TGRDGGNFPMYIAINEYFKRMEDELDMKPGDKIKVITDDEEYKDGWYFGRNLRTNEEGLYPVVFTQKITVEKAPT

Experiment [3] addresses T3, Rvs167 SH3 (RV167_YEAST), P39743.
T3 chain: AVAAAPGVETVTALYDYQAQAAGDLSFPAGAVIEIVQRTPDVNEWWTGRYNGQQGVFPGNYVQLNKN

For experiment [4], the target named is T4, Boi1 SH3 (BOI1_YEAST), P38041.
T4 chain: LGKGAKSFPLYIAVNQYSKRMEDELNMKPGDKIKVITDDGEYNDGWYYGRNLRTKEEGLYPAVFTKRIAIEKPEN

For experiment [5], the target named is T5, Yhr016c SH3 (YSC84_YEAST), P32793.
T5 chain: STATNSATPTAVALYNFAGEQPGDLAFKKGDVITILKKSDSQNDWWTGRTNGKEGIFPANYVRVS

As for QNNPPKPQKPVPLN [YOR290C 415-428], the normalised SPOT signal, Boehringer light units (BLU); mean over the file's lines of this peptide in experiment [1] is 116; in experiment [2] it was -0; in experiment [3] it was 23.6; in experiment [4], 14.1; in experiment [5], 148.

Take QILPTKPVKIIEQN [YLR082C 68-81]: the normalised SPOT signal, Boehringer light units (BLU); mean over the file's lines of this peptide in experiment [1] was 183; in experiment [2], 36.5; in experiment [3] it was 14.6; in experiment [4] it was 30.5; in experiment [5] it was 73.8.

With QPAPRIPSKDAIIS [YAL051W 100-113], the normalised SPOT signal, Boehringer light units (BLU); mean over the file's lines of this peptide came out at 1610 in experiment [1]; 23.6 in experiment [2]; 169 in experiment [3]; 58.1 in experiment [4]; 95.9 in experiment [5].

Consider QLLPNNPDKNNNGT [YKL159C 151-164], for which the normalised SPOT signal, Boehringer light units (BLU); mean over the file's lines of this peptide stood at 49.9 in experiment [1]; 52.3 in experiment [2]; 0 in experiment [3]; 149 in experiment [4]; 130 in experiment [5].

Turning to QKTPPSPAKPKQKT [YBR102C 26-39], the normalised SPOT signal, Boehringer light units (BLU); mean over the file's lines of this peptide was 365 in experiment [1]; 43.4 in experiment [2]; 156 in experiment [3]; 331 in experiment [4]; 176 in experiment [5].

With QNTPPLPPKPKSPH [YCL008C 175-188], the normalised SPOT signal, Boehringer light units (BLU); mean over the file's lines of this peptide in experiment [1] was found to be 38500; in experiment [2] it was 46; in experiment [3], 1050; in experiment [4], 102; in experiment [5], 18200.

Turning to QIFPKKPLRRTVMS [YDR182W 166-179], the normalised SPOT signal, Boehringer light units (BLU); mean over the file's lines of this peptide in experiment [1] came out at 35400; in experiment [2], 282; in experiment [3], 737; in experiment [4], 231; in experiment [5] it was 8570.

As for QMRPYTPLRSPNSR [YOR093C 49-62], the normalised SPOT signal, Boehringer light units (BLU); mean over the file's lines of this peptide in experiment [1] is 4420; in experiment [2], 1420; in experiment [3] it was 1140; in experiment [4] it was 2880; in experiment [5] it was 1440.

Regarding QLTPLLPDKYFDSA [YBL066C 693-706], the normalised SPOT signal, Boehringer light units (BLU); mean over the file's lines of this peptide was 516 in experiment [1]; 19.8 in experiment [2]; 106 in experiment [3]; 50.1 in experiment [4]; 207 in experiment [5].

Consider QLEPLAPYKFFDII [YLR430W 1690-1703], for which the normalised SPOT signal, Boehringer light units (BLU); mean over the file's lines of this peptide in experiment [1] came out at 70.2; in experiment [2] it was 23.8; in experiment [3], 62.7; in experiment [4], 85.7; in experiment [5], 334.

Regarding QPLPTSPSKRFSSL [YOR372C 249-262], the normalised SPOT signal, Boehringer light units (BLU); mean over the file's lines of this peptide was 164 in experiment [1]; 94.3 in experiment [2]; 32.1 in experiment [3]; 53.8 in experiment [4]; 249 in experiment [5].

As for QPKPGNPLRNARLN [YMR191W 37-50], the normalised SPOT signal, Boehringer light units (BLU); mean over the file's lines of this peptide in experiment [1] amounted to 266; in experiment [2], 21.7; in experiment [3], 49.2; in experiment [4] it was 174; in experiment [5], 169.

Consider QLLPNVPDKVLVPG [YDL220C 391-404], for which the normalised SPOT signal, Boehringer light units (BLU); mean over the file's lines of this peptide in experiment [1] turned out to be 69; in experiment [2], 49.5; in experiment [3], 67.5; in experiment [4] it was 87.7; in experiment [5], 92.2.

Take QMNPKNPIRLGMAN [YOR227W 657-670]: the normalised SPOT signal, Boehringer light units (BLU); mean over the file's lines of this peptide was 866 in experiment [1]; 118 in experiment [2]; 25.7 in experiment [3]; 679 in experiment [4]; 182 in experiment [5].

Turning to QLFPVRPVRVRHED [YDL150W 198-211], the normalised SPOT signal, Boehringer light units (BLU); mean over the file's lines of this peptide in experiment [1] turned out to be 28800; in experiment [2], 5900; in experiment [3] it was 11400; in experiment [4] it was 34100; in experiment [5], 13600.

These data come from article PMC314469, “Protein Interaction Networks by Proteome Peptide Scanning” (PLoS Biology, 2004).
